Legend:
[1] = target: huN1-NRRHD chimeric antigen, HD-C Subdomain swap 3 (to Notch2 sequence) (human; human with Notch2 residues) (UniProt P46531); assay: ELISA on coated conditioned medium
[2] = target: huN1-NRRHD chimeric antigen, HD-C Subdomain swap 2 (to Notch2 sequence) (human; human with Notch2 residues) (UniProt P46531); assay: ELISA on coated conditioned medium
[3] = target: huN1-NRRHD chimeric antigen, HD-C Subdomain swap 4 (to Notch2 sequence) (human; human with Notch2 residues) (UniProt P46531); assay: ELISA on coated conditioned medium
[4] = target: huN1-NRRHD chimeric antigen, HD-C Subdomain swap 1 (to Notch2 sequence) (human; human with Notch2 residues) (UniProt P46531); assay: ELISA on coated conditioned medium
[5] = target: huN1-NRRHD chimeric antigen, HD-C Subdomain swap 5 (to Notch2 sequence) (human; human with Notch2 residues) (UniProt P46531); assay: ELISA on coated conditioned medium
[6] = target: Notch1 chimeric antigen, Lin-A domain swapped with murine sequence (human; human with mouse Lin-A) (UniProt P46531); assay: ELISA on coated conditioned medium
[7] = target: huN1-NRRHD Mutant 1467Q/A (human) (UniProt P46531); assay: ELISA, relative to huN1-NRRHD
[8] = target: huN1-NRRHD Mutant 1463V/A (human) (UniProt P46531); assay: ELISA, relative to huN1-NRRHD
[9] = target: huN1-NRRHD Mutant 1466L/A (human) (UniProt P46531); assay: ELISA, relative to huN1-NRRHD
[10] = target: huN1-NRRHD Mutant 1462K/A (human) (UniProt P46531); assay: ELISA, relative to huN1-NRRHD
[11] = target: huN1-NRRHD Mutant 1457E/A (human) (UniProt P46531); assay: ELISA, relative to huN1-NRRHD
[12] = target: huN1-NRRHD Mutant 1465S/N (human) (UniProt P46531); assay: ELISA, relative to huN1-NRRHD
[13] = target: Notch1 chimeric antigen, Lin-A domain swapped with murine sequence (human; human with mouse Lin-A) (UniProt P46531); assay: ELISA, relative to huN1-NRRHD

ELISA reading (Binding activity) [1]: 2.81
ELISA reading (Binding activity) [2]: 2.76
ELISA reading (Binding activity) [3]: 2.89
ELISA reading (Binding activity) [4]: 0.48
ELISA reading (Binding activity) [5]: 1.48
ELISA reading [6]: 0.33
Binding activity [7]: 4%
Binding activity [8]: 6%
Binding activity [9]: 1%
Binding activity [10]: 85%
Binding activity [11]: 112%
Binding activity [12]: 8%
Binding activity [13]: 11%
B1: mouse monoclonal antibody N248A (antibody, IgG1, V domains shown)
VH: QVQLQQSGAELMKPGASVKISCKATGYTFSNYWMEWVKQRPGHGLEWIGEILPGRGRTNYNENFKGKATFTADTSSNTVYMQLNSLTSEDSAVYYCARFHSSAYYYTMDYWGQRTSVTVSS
VL: QAVVTQESALTTSPGETVTLTCRSSTGAVTTSNYANWVQEKPDHLFTGLIGGTNNRAPGIPARFSGSLIGDKAALTITGAQTEDEAIYFCALWYSNHWVFGGGTKLTVL

— patent US20120093813A1
